Tested on: Escherichia coli TOP10
Experiment: shrunken log2 fold change of peptide-encoding DNA abundance (4.5 h post-induction vs induction); higher = less antimicrobial activity (less host growth inhibition)
Details: time post-induction: 4.5 h; library: site-saturation at positions 5, 18, 19, 20
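Further: peptides expressed intracellularly from a pBAD plasmid library in pooled LB shake-flask culture, induced with 0.3% L-arabinose, DNA abundance read by NGS, three biological replicates, DESeq2 with apeglm shrinkage.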

Sequence | shrunken log2 fold change
RRIRFRPPRLPRPRPRPFEAPRP | -0.105
RRIRIRPPRLPRPRPRPFTMPRP | -0.79
RRIRSRPPRLPRPRPRPPRDPRP | 1.34
RRIRDRPPRLPRPRPRPFQHPRP | -0.202
RRIRFRPPRLPRPRPRPWWGPRP | -0.00459
RRIRWRPPRLPRPRPRPIVNPRP | -0.0307
RRIRIRPPRLPRPRPRPWNCPRP | -0.000121
RRIRSRPPRLPRPRPRPQSLPRP | -0.232
RRIRSRPPRLPRPRPRPFSIPRP | -0.379
RRIRERPPRLPRPRPRPYVWPRP | -0.401
RRIRGRPPRLPRPRPRPKLAPRP | 1.67
RRIRARPPRLPRPRPRPICGPRP | 0.248
RRIRHRPPRLPRPRPRPVHWPRP | 0.0039
RRIRTRPPRLPRPRPRPLQIPRP | 4.62
RRIRLRPPRLPRPRPRPYCHPRP | -0.542
RRIRKRPPRLPRPRPRPICTPRP | -0.0207
RRIRARPPRLPRPRPRPKCCPRP | 0.165
RRIRLRPPRLPRPRPRPHWCPRP | -0.0751
RRIRVRPPRLPRPRPRPAYMPRP | -0.271
RRIRWRPPRLPRPRPRPANDPRP | -0.0438
RRIRVRPPRLPRPRPRPIFMPRP | -0.363
RRIRARPPRLPRPRPRPYFMPRP | -0.62
RRIRYRPPRLPRPRPRPTWLPRP | 0.00076

Sequence | shrunken log2 fold change
RRIRNRPPRLPRPRPRPAPPPRP | 0.584
RRIRGRPPRLPRPRPRPHCLPRP | 0.196
RRIRWRPPRLPRPRPRPERIPRP | 0.0766
RRIRWRPPRLPRPRPRPNRLPRP | -0.0743
RRIRRRPPRLPRPRPRPYMYPRP | -0.74
RRIRKRPPRLPRPRPRPHHGPRP | -0.11
RRIRFRPPRLPRPRPRPHRTPRP | -0.18
RRIRPRPPRLPRPRPRPRGYPRP | 0.523
RRIRYRPPRLPRPRPRPDIQPRP | -0.349
RRIRSRPPRLPRPRPRPTDCPRP | -0.0926
RRIRGRPPRLPRPRPRPPCKPRP | 0.339
RRIRSRPPRLPRPRPRPQYHPRP | -0.9
RRIRQRPPRLPRPRPRPNLVPRP | 0.0528
RRIRSRPPRLPRPRPRPCVKPRP | -0.414
RRIRARPPRLPRPRPRPNSCPRP | -0.205
RRIRQRPPRLPRPRPRPQQLPRP | -0.0824
RRIRYRPPRLPRPRPRPQLRPRP | -0.193
RRIRNRPPRLPRPRPRPWVAPRP | -0.0268
RRIRVRPPRLPRPRPRPEHAPRP | 0.0467
RRIRMRPPRLPRPRPRPPHCPRP | 1.68
RRIRHRPPRLPRPRPRPQDMPRP | -0.129
RRIRKRPPRLPRPRPRPKMEPRP | 0.368
RRIRPRPPRLPRPRPRPEDSPRP | 0.159

Sequence | shrunken log2 fold change
RRIRLRPPRLPRPRPRPLVKPRP | -0.00589
RRIRWRPPRLPRPRPRPPGTPRP | 0.475
RRIRSRPPRLPRPRPRPYRHPRP | -0.542
RRIRNRPPRLPRPRPRPYRFPRP | -0.00669
RRIRFRPPRLPRPRPRPSLHPRP | -0.558
RRIRKRPPRLPRPRPRPNTGPRP | 0.382
RRIRTRPPRLPRPRPRPSKNPRP | -0.325
RRIRFRPPRLPRPRPRPHFTPRP | -0.489
RRIRFRPPRLPRPRPRPLVKPRP | -0.143
RRIRQRPPRLPRPRPRPNMKPRP | -0.336
RRIRHRPPRLPRPRPRPKMCPRP | -0.00195
RRIRHRPPRLPRPRPRPTMWPRP | 0.22
RRIRARPPRLPRPRPRPTSYPRP | -0.0752
RRIRFRPPRLPRPRPRPGIMPRP | -0.124
RRIRNRPPRLPRPRPRPVMYPRP | -0.128
RRIRRRPPRLPRPRPRPFKFPRP | -0.0354
RRIRKRPPRLPRPRPRPVKVPRP | 0.432
RRIRDRPPRLPRPRPRPQFHPRP | -0.438
RRIRGRPPRLPRPRPRPSVSPRP | 0.166
RRIRSRPPRLPRPRPRPTKVPRP | -0.213
RRIRCRPPRLPRPRPRPNAPPRP | 0.367
RRIRTRPPRLPRPRPRPDHDPRP | 0.0257
RRIRIRPPRLPRPRPRPREFPRP | 0.0231

Sequence | shrunken log2 fold change
RRIRARPPRLPRPRPRPLEQPRP | 0.156
RRIRKRPPRLPRPRPRPIKCPRP | -0.29
RRIRCRPPRLPRPRPRPRCGPRP | 0.191
RRIRIRPPRLPRPRPRPYLQPRP | -0.00195
RRIRTRPPRLPRPRPRPYADPRP | -0.22
RRIRVRPPRLPRPRPRPTWVPRP | 0.228
RRIRARPPRLPRPRPRPYAIPRP | 2.12
RRIRSRPPRLPRPRPRPNKFPRP | -0.36
RRIRFRPPRLPRPRPRPMYYPRP | -0.123
RRIRERPPRLPRPRPRPSTIPRP | -0.551
RRIRARPPRLPRPRPRPPGIPRP | 0.331
RRIRERPPRLPRPRPRPNGKPRP | -0.0394
RRIRYRPPRLPRPRPRPCERPRP | 0.0112
RRIRLRPPRLPRPRPRPGICPRP | 0.126
RRIRRRPPRLPRPRPRPGRRPRP | 0.456
RRIRLRPPRLPRPRPRPWHNPRP | -0.00136
RRIRWRPPRLPRPRPRPYDHPRP | -0.207
RRIRARPPRLPRPRPRPLRKPRP | 0.62
RRIRQRPPRLPRPRPRPPTYPRP | -0.0183
RRIRQRPPRLPRPRPRPNAPPRP | 0.105
RRIRCRPPRLPRPRPRPEPMPRP | 0.176
RRIRSRPPRLPRPRPRPYVIPRP | -0.292
